The target in assay [1] is Abeta in AD (senile plaques) (Homo sapiens, UniProt P05067). Description: immunostaining of cells or tissue.
Assay [2] addresses tau pathology in PSP and AD (Homo sapiens, UniProt P10636). Description: immunostaining of cells or tissue.

tau pathology in PSP and AD, sequence (P10636 whole entry): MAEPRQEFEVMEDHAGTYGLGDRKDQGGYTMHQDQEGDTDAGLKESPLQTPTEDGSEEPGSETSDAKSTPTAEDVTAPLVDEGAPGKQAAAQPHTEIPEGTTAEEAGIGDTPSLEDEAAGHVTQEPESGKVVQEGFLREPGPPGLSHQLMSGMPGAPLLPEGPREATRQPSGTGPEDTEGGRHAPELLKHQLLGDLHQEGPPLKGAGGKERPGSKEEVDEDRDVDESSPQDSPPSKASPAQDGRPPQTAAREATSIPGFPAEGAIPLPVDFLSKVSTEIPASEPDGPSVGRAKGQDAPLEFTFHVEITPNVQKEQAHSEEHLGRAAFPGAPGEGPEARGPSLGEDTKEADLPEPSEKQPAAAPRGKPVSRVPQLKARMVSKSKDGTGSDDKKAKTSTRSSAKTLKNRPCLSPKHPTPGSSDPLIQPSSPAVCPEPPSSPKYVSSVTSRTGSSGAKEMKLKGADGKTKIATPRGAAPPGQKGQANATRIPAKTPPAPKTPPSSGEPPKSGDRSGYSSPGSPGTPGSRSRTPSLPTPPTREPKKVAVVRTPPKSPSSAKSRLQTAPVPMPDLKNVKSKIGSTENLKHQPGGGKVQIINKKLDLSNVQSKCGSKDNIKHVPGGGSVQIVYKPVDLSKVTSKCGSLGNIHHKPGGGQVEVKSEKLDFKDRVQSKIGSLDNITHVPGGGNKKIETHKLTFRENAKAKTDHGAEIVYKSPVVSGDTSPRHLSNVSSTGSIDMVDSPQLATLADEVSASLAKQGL

B1: 306C7B3 (native IgG purified from the hybridoma clone) (antibody, V domains shown)
VH: EVQLVESGGGLVKPGGSRKLSCAASGFTFSDHGMHWVRQAPEKGLEWVAYISSGSSTIYYADTVKGRFTISRDNAKNTLFLQMTSLRSEDTAMYYCARSYIPYWGQGTLVTVSA
VL: DVVMTQTPLSLPVSLGDQASISCRSSQSLVHSNGNTYLHWYLQKPGQSPKLLIYKVSNRFSGVPDRFSGSGSGTDFTLKISRVEAEDLGVYFCSQSTHVPWTFGGGTKLEIK
Take B1: the binding result in assay [1] and in assay [2] was “no binding (tested: 1:10000 dilution)” each time.

For the origin of these results see doi:10.1101/2022.11.30.518485 (bioRxiv, 2022).
